Target: T1, SARS-CoV-2 nsp12 (RNA-dependent RNA polymerase with N-terminal NiRAN domain) (SARS-CoV-2, UniProt P0DTD1)
T1 construct: also called RdRp; WT nsp12
Experiment: cryo-EM structure
Settings: both partners purified

B1: SARS-CoV-2 nsp9 with native N-terminus (natural protein)
chain: NNELSPVALRQMSCAAGTTQTACTDDNALAYYNTTKGGRFVLALLSDLQDLKWARFPKSDGTGTIYTELEPPCRFVTDTPKGPKVKYLYFIKGLNNLNRGMVLGSLAATVRLQ
notes: also called native nsp9
- binding result: binds

Source: article PMC8863163 (Research Square, 2022)
